# Test results taken from article PMC3018327 (Nature immunology, 2010).
# Molecular target: soluble HLA-DM, wild type (DM WT) (human) (UniProt P28067)
# Experiment: SPR
substance,measurement,value
DR1 (DRα V65C) with disulfide-linked HA6 P2-P11 peptide (from UniProt P01903) (peptide-MHC),Kd,1000 nM
same,percent of maximal DM binding at pH 7.0,40%
